{"source": "patent EP2974737A1", "binders": {"B1": {"name": "SEQ ID NO: 48 (VHH)", "VHH": "EVQLVESGGGLVQPGGSLRLSCIASGLPFSTKSMGWFRQAPGKEREFVARISPGGTSRYYGDFVKGRFAISRDNAKNTTWLQMNSLKAEDTAVYYCASGERSTYIGSNYYRTNEYDYWGTGTQVTVSS"}, "B2": {"name": "SEQ ID NO: 43 (VHH)", "chain": "DVQLVESGGGLVQPGGSLRLSCAASGFILDYYAIGWFRQAPGKEREGVLCIDASDDITYYADSVKGRFTISRDNSKNTVYLQMNSLRPEDTAVYYCATPIGLSSSCLLEYDYDYWGQGTLVTVSSGGGGSGGGSEVQLLESGGGLVQPGGSLRLSCAASGFTFRSFGMSWVRQAPGKGPEWVSSISGSGSDTLYADSVKGRFTISRDNSKNTLYLQMNSLRPEDTAVYYCTIGGSLSRSSQGTLVTVSSA"}, "B3": {"name": "SEQ ID NO: 85 (VHH)", "VHH": "EVQLVESGGGSVQPGGSLRLSCAASRSIGRLDRMGWYRHRPGEPRELVATITGGSSINYGDSVKGRFTISIDNSKNTVYLQMNSLRPEDTAVYYCNFNKYVTSRDTWGQGTLVQVGG"}, "B4": {"name": "SEQ ID NO: 47 (VHH)", "VHH": "EVQLVESGGGLVQPGGSLRLSCAASGSVFKINVMAWYRQAPGKGRELVAGIISGGSTSYADSVKGRFTISRDNAKNTLYLQMNSLRPEDTAVYYCAFITTESDYDLGRRYWGQGTLVTVSS"}, "B5": {"name": "SEQ ID NO: 45 (VHH)", "VHH": "EVQLVESGGGLVQAGGSLRLSCAASRSIGRLDRMGWYRHRTGEPRELVATITGGSSINYGDFVKGRFTISIDNAKNTVYLQMNNLKPEDTAVYYCNFNKYVTSRDTWGQGTQVTVSS"}, "B6": {"name": "SEQ ID NO: 71 (VHH)", "VHH": "B3 VHH with S11L, Q114T, G116S"}, "B7": {"name": "SEQ ID NO: 84 (VHH)", "VHH": "B3 VHH with S11L, Q114T, G117S"}, "B8": {"name": "SEQ ID NO: 87 (VHH)", "VHH": "B3 VHH with Q114T"}, "B9": {"name": "SEQ ID NO: 67 (VHH)", "VHH": "B3 VHH with S11L, R86K, Q114T, G116S, G117S"}, "B10": {"name": "SEQ ID NO: 80 (VHH)", "VHH": "B3 VHH with S11L"}, "B11": {"name": "SEQ ID NO: 69 (VHH)", "VHH": "B3 VHH with S11L, L112Q, Q114T, G116S, G117S"}, "B12": {"name": "SEQ ID NO: 89 (VHH)", "VHH": "B3 VHH with P14A"}, "B13": {"name": "SEQ ID NO: 78 (VHH)", "VHH": "B3 VHH with S11L, Q13R, Q114T, G116S, G117S"}, "B14": {"name": "SEQ ID NO: 81 (VHH)", "VHH": "B3 VHH with S11V, Q114T, G116S, G117S"}, "B15": {"name": "SEQ ID NO: 66 (VHH)", "VHH": "B3 VHH with Q114T, G116S, G117S"}, "B16": {"name": "SEQ ID NO: 70 (VHH)", "VHH": "B3 VHH with S11L, G116S, G117S"}, "B17": {"name": "SEQ ID NO: 68 (VHH)", "VHH": "B5 VHH with T41P, F62S, A74S, N84S, K86R"}, "B18": {"name": "SEQ ID NO: 65 (VHH)", "VHH": "B3 VHH with S11L, P14A, Q114T, G116S, G117S"}, "B19": {"name": "SEQ ID NO: 83 (VHH)", "VHH": "B3 VHH with S11L, T90A, Q114T, G116S, G117S"}, "B20": {"name": "SEQ ID NO: 82 (VHH)", "VHH": "B3 VHH with S11L, P87A, Q114T, G116S, G117S"}, "B21": {"name": "SEQ ID NO: 49 (VHH)", "VHH": "EVQLLESGGGLVQPGGSLRLSCAASGLPFSTKSMGWFRQAPGKGREFVSRISPGGTSRYYGDFVKGRFTISRDNSKNTLYLQMNSLRAEDTAVYYCASGERSTYIGSNYYRTNEYDYWGQGTLVTVSS"}}, "note": "Changes are numbered by the printed parent chain."}
{"biological_target": "monoclonal antibody 21-4-3", "sequence (VH, as listed by the source, form in doubt, chain 1 of 2)": "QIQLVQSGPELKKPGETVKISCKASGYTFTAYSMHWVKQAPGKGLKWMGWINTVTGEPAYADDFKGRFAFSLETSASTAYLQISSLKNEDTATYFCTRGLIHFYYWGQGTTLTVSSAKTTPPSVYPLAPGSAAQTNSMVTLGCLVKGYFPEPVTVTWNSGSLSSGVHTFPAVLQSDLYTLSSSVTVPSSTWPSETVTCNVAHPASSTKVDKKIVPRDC", "sequence (VL, as listed by the source, form in doubt, chain 2 of 2)": "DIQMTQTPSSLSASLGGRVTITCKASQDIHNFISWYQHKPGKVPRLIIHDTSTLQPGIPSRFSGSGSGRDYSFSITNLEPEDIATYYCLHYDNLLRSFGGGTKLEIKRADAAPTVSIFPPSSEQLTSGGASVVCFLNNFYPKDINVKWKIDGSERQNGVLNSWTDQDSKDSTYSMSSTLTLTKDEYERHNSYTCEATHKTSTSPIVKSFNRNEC", "test": "SPR, captured 21-4-3, 500 nM; % of Fig. 9 reference", "units": {"binding of 21-4-3, % of Reference Sequence": "%"}}
{"binder": "B1", "binding of 21-4-3, % of Reference Sequence": 3}
{"binder": "B2", "binding of 21-4-3, % of Reference Sequence": 3}
{"binder": "B3", "binding of 21-4-3, % of Reference Sequence": 32}
{"binder": "B4", "binding of 21-4-3, % of Reference Sequence": 4}
{"binder": "B5", "binding of 21-4-3, % of Reference Sequence": 22}
{"binder": "B6", "binding of 21-4-3, % of Reference Sequence": 44}
{"binder": "B7", "binding of 21-4-3, % of Reference Sequence": 91}
{"binder": "B8", "binding of 21-4-3, % of Reference Sequence": 41}
{"binder": "B9", "binding of 21-4-3, % of Reference Sequence": 101}
{"binder": "B10", "binding of 21-4-3, % of Reference Sequence": 51}
{"binder": "B11", "binding of 21-4-3, % of Reference Sequence": 106}
{"binder": "B12", "binding of 21-4-3, % of Reference Sequence": 2}
{"binder": "B13", "binding of 21-4-3, % of Reference Sequence": 1}
{"binder": "B14", "binding of 21-4-3, % of Reference Sequence": 75}
{"binder": "B15", "binding of 21-4-3, % of Reference Sequence": 48}
{"binder": "B16", "binding of 21-4-3, % of Reference Sequence": 106}
{"binder": "B17", "binding of 21-4-3, % of Reference Sequence": 26}
{"binder": "B18", "binding of 21-4-3, % of Reference Sequence": 23}
{"binder": "B19", "binding of 21-4-3, % of Reference Sequence": 79}
{"binder": "B20", "binding of 21-4-3, % of Reference Sequence": 56}
{"binder": "B21", "binding of 21-4-3, % of Reference Sequence": 4}
